Measured values: US20220378887A1 (GENOIMMUNE THERAPEUTICS, published 2022)

B1: TTAPFLSGK polypeptide (CTNNB1; SEQ ID NO: 9) (peptide)
peptide: TTAPFLSGK
notes: Synthesized mutant neoantigen peptide; also called high-frequency mutant polypeptide
B2: RTIEQLTLK polypeptide (ARHGEF11; SEQ ID NO: 8) (peptide)
peptide: RTIEQLTLK
notes: as for B1
B3: STIDESPIFK polypeptide (GLCE; SEQ ID NO: 7) (peptide)
peptide: STIDESPIFK
notes: as for B1
B4: VVVGAGDVGK polypeptide (KRAS; SEQ ID NO: 15) (peptide)
peptide: VVVGAGDVGK
notes: Synthesized mutant KRAS neoantigen peptide; also called high-frequency mutant polypeptide

The binders below were run against T1, HLA-A*11:01 (MHC-I molecules on the surfaces of T2 cells) (human) (assay: T2 cell MHC-I stabilisation assay, flow cytometry with FITC anti-HLA-A*11:01 antibody).
T1 construct: It only names the antibody against 'the corresponding HLA typing (HLA-A*11:01)'; also called HLA molecules
In the case of B1, the “FI (fluorescence index)” value is reported as 1.02. B2 was tested, and the “FI (fluorescence index)” value was 1.57. In the case of B3, the “FI (fluorescence index)” value is reported as 4.09. In the case of B4, the “FI (fluorescence index)” value is reported as 1.66.
